Data on six molecules can be found in paper PMC4772809, “Network of protein interactions within the Drosophila inner kinetochore” (Open Biology, 2016).

T1: 6xHis::CENP-C^1–94 (Drosophila melanogaster, UniProt Q9VHP9 1-94)
T1 construct: also called His-tagged CENP-C 1-94; source: E. coli BL21(DE3)
T1 sequence (looked up): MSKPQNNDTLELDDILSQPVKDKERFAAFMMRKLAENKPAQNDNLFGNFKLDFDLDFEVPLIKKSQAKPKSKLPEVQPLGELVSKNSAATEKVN

T2: 6xHis::Nsl1 (Drosophila melanogaster, UniProt Q9VYX4 1-183)
T2 construct: residues up to 183 are printed; not the NSL-complex protein of the same name; source: E. coli BL21(DE3), co-expressed from Duet vectors (induced overnight); in lysate for Ni-NTA co-purification, then purified (Ni-NTA, SEC)
T2 sequence (looked up): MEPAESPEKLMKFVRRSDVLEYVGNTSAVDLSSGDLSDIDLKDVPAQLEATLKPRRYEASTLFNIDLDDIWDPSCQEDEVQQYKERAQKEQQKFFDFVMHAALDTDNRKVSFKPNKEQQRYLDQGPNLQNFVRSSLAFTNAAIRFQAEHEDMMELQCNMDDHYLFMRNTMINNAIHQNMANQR

T3: 6xHis::Nnf1a (Drosophila melanogaster, UniProt Q7JZC9 1-194)
T3 construct: written 6xHis::Nnf1a; also called polyhistidine (His)-tagged Nnf1a; source: E. coli BL21(DE3), co-expressed from Duet vectors; in lysate for Ni-NTA co-purification, then purified (Ni-NTA, SEC)
T3 sequence (looked up): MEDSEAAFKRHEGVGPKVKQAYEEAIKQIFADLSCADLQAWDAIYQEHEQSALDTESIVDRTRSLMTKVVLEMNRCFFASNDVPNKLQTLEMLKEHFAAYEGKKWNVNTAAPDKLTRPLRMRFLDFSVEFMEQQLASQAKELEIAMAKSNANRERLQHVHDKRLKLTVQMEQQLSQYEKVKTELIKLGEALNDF

T4: Nnf1a^122–147 peptide (Drosophila melanogaster, N-terminus acetylated; C-terminus amidated)
T4 construct: also called Peptide Nnf1; Nnf1a R122-A147; source: synthetic peptide, bought: GenScript
T4 peptide: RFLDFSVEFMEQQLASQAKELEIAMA

B1: CENP-C^1–94 (untagged, recombinant) (domain or fragment, Drosophila melanogaster, UniProt Q9VHP9 1-94, looked up)
chain: T1 sequence (looked up)
notes: also called amino-terminal part of CENP-C (residues 1–94); source: E. coli BL21(DE3), co-expressed from Duet vectors; in lysate for Ni-NTA co-purification, then purified (Ni-NTA, SEC)
B2: Nnf1a + Mis12 (both untagged) (complex, Drosophila melanogaster)
chain 1: T3 sequence (looked up)
chain 2: MDFNSLAYDQKFFNFTAAQLSAEREHIVQDIIKKGIGQIIDKIKTPATAELLEAEKETVERRFQASASKGLKALRELDSKVFHVPPHVLHPEHMFVENQYTSEEEEQKTARLEELKAKYRENMAMLAHLKIEEEKYAAMEDLIQKEIEMQDRVQRSCSSLNITKLKQFWNQVPLQIKKETD
notes: Nnf1a, as m6; Mis12, as m2; co-purified through a His tag on the third co-expressed protein; also called Mis12–Nnf1a dimer; MN dimer; source: E. coli BL21(DE3), co-expressed from Duet vectors; in lysate for Ni-NTA co-purification, then purified (Ni-NTA, SEC); copies: 1 + 1
B3: Mis12 (untagged, recombinant) (natural protein, Drosophila melanogaster, UniProt Q9VS01 1-181, looked up)
chain: B2 chain 2
notes: source: E. coli BL21(DE3), co-expressed from Duet vectors; in lysate for Ni-NTA co-purification, then purified (Ni-NTA, SEC)
B4: 6xHis::Nnf1a–Mis12 heterodimer (complex, Drosophila melanogaster)
chain 1: T3 sequence (looked up)
chain 2: B2 chain 2
notes: Nnf1a, as m1; Mis12, as m2; 1 : 1 by SEC-MALS; also called MN dimer; MN; source: E. coli BL21(DE3), co-expressed from Duet vectors; in lysate for Ni-NTA co-purification, then purified (Ni-NTA, SEC); copies: 1 + 1
B5: Mis12^101–130 peptide (peptide)
peptide: Ac-TSEEEEQKTARLEELKAKYRENMAMLAHLK-NH2
notes: also called Mis12 peptide; Mis12 T101-K130; source: synthetic peptide, bought: GenScript

In data set [1] the target is Mis12–Nnf1a–CENP-C^1–94 complex (Drosophila melanogaster) (UniProt Q9VHP9). The data set can be described thus: SEC-MALS; complexes already collected from SEC, stored at 4 °C in SEC buffer and re-loaded; two elution peaks, masses by MALS.
Data set [2] addresses B4. Kind of data set: SEC-MALS; co-expressed, co-purified complexes on Superdex 200 10/300 at 4 °C, 150 mM NaCl, 10 mM Tris/HCl pH 8.0, in-line MALS and refractometer. Particulars: both partners purified.
The target of another data set is T1, 6xHis::CENP-C^1–94. The description is as above. Particulars: both partners purified.
In another data set the target is T2, 6xHis::Nsl1. Described as above. Particulars: both partners purified.
A further data set deals with T3, 6xHis::Nnf1a. Described as above. Particulars: both partners purified.
Data set [3] deals with the molecule itself. The data set can be described thus: SEC-MALS; complexes already collected from SEC, stored at 4 °C in SEC buffer and re-loaded; two elution peaks, masses by MALS.
Another data set deals with T4, Nnf1a^122–147 peptide. The data set can be described thus: circular dichroism; synthetic peptides alone and in equimolar mixture, 0.1 M PBS pH 7.4, 195–270 nm, room temperature. Particulars: both partners purified.

As to “Mis12–Nnf1a–CENP-C^1–94 complex (from UniProt Q9VHP9 1-94)”, the stoichiometry N in data set [1] worked out at 2. Turning to B1, the “stoichiometry N” value in data set [2] worked out at 1.

Regarding B2, the “stoichiometry N” value with 6xHis::CENP-C^1–94 and in the data set with 6xHis::Nsl1 was 1 each time. As for B3, the “stoichiometry N” value with 6xHis::Nnf1a came to 1.

With B4, the “stoichiometry N” value in data set [3] worked out at 2. B5: the binding result in the data set with Nnf1a^122–147 peptide is listed as “binds”.
